Data from paper PMC5261137 (Proteins, 2016).

Biological target: T1, SipD^C244S (residues 39-343 C244S) (Salmonella, UniProt Q56026 39-343, C244S)
T1 sequence: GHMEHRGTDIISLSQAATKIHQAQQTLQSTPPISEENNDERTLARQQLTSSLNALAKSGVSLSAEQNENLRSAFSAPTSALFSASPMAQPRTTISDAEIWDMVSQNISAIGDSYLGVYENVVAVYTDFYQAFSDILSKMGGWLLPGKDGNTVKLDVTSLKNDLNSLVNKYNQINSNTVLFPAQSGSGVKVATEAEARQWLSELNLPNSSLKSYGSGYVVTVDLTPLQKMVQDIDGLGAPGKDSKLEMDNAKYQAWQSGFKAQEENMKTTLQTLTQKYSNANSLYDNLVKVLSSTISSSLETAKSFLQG
Test: NMR titration

B1: SipB^11-232 (domain or fragment)
chain: SGYTQNPRLAEAAFEGVRKNTDFLKAADKAFKDVVATKAGDLKAGTKSGESAINTVGLKPPTDAAREKLSSEGQLTLLLGKLMTLLGDVSLSQLESRLAVWQAMIESQKEMGIQVSKEFQTALGEAQEATDLYEASIKKTDTAKSVYDAATKKLTQAQNKLQSLDPADPGYAQAEAAVEQAGKEATEAKEALDKATDATVKAGTDAKAKAEKADNILTKFQG
binding result: binds
